Assay [1] deals with CD95 (full-length protein, amino acids 1 to 335) fused C-terminally to mEGFP or mCherry (human (from the printed accession)) (UniProt P25445).
The target in assay [2] is T1, CD95 (full-length protein, amino acids 1 to 335) fused C-terminally to mEGFP or mCherry (human (from the printed accession)), P25445.
T1 chain: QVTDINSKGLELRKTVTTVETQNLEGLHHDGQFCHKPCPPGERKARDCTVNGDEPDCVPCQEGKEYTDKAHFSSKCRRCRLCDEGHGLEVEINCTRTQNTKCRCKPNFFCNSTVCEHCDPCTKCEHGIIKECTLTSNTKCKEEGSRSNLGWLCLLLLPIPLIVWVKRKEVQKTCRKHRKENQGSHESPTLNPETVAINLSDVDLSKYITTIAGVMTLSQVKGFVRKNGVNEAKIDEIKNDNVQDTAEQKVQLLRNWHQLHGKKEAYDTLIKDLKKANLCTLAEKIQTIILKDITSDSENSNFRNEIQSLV
As to the kind of experiment: FRET or BRET; CELFIS (FRET-FLIM) in live HeLa CD95^KO cells with bicistronic mCherry/mEGFP plasmids; after addition of CD95L (200 ng/ml with enhancer); repeated measurements up to 6 hours; 37°C. The conditions noted are these: remark: other sources report otherwise. (In general: BRET reads energy transfer from a luciferase to a nearby fluorophore.)

Assay [3] addresses T1, CD95 (full-length protein, amino acids …). As to the kind of experiment: FRET or BRET; CELFIS (FRET-FLIM, donor lifetime, x_FRET for each cell) in live HeLa CD95^KO cells with bicistronic mCherry/mEGFP plasmids; no ligand; evaluated from 30 up to 1000 receptors/μm^2; 37°C. As to conditions: remark: other sources report otherwise.

In assay [1], “FasL, soluble (human) (recombinant) (from UniProt P48023 130-281) (ligand)” showed a percentage of apoptotic cells (time-lapse microscopy, HeLa cells expressing CD95-mEGFP), CD95L 2 to 200 ng/ml (% apoptotic cells) of 99.

B1: CD95 (full-length protein, amino acids 1 to 335) fused C-terminally to mEGFP or mCherry, P25445 26-335 (receptor)
chain: T1 chain
Take B1: in assay [2], the oligomer fraction with CD95L is below 21%; the oligomer fraction with CD95L, cells that did not show apoptosis, after 4 hours was found to be 12%; the oligomer fraction with CD95L, cells that underwent apoptosis amounted to 18%; the oligomer fraction with CD95L, just before apoptosis was determined as 15%. In assay [2], the oligomerization rate with CD95L, cells that died (% oligomers/hour) came out at 6; the oligomerization rate with CD95L, cells that stayed alive (% oligomers/hour) was 2.3; the x FRET with CD95L was found to be 12%. In addition, in assay [3], the dimer fraction is below 4% and the monomer fraction turned out to be 96%.

The record behind these values is paper PMC11809610.
